In PMC8582585, “An HLA-A*11:01-Binding Neoantigen from Mutated NPM1 as Target for TCR Gene Therapy in AML” (Cancers, 2021):
Peptide text beside a SMILES is read from it.

Key:
HLA-A*03:01 (HLA-A3) = molecular target: T1, HLA-A*03:01 (HLA-A3) (Homo sapiens, UniProt P04439); assay: Competition-based peptide-HLA class I binding assay, HLA-A3
T1 construct: soluble HLA molecules mixed with a fluorescein-labeled peptide; made in house; host or cells: Escherichia coli

HLA-A*11:01 (HLA-A11) = molecular target: T2, HLA-A*11:01 (HLA-A11) (Homo sapiens, UniProt P04439, A114D/D185E/E176A/F33Y/L180Q/S129P/T187R); assay: Competition-based peptide-HLA class I binding assay, HLA-A11
T2 construct: soluble HLA molecules mixed with a fluorescein-labeled peptide; made in house; host or cells: Escherichia coli

HLA-A*02:01 (HLA-A2) = HLA-A*02:01 (HLA-A2) (Homo sapiens, UniProt P04439, D140Y/D185E/D98H/E176V/E277Q/G131W/G231S/I119V/I121R/I166T/I218V/L300P/L318F/N151K/N90K/P208A/P217A/Q86G/Q94H/R138H/R169H/T345S); conditions: cited from earlier work
Text: In this study, we investigated whether […] is also a neoantigen that can be targeted by TCR gene therapy. We isolated various T-cells for […] and cloned the TC ...

[1] = molecular target: soluble HLA-A*03:01 (heavy chain with β2M); assay: competition-based peptide-HLA class I binding assay (gel-filtration HPLC with fluorescence detection); 25 pmol HLA heavy chain, 25 pmol β2M, 100 fmol KVFPC(Fl)ALINK and 10-fold serial dilutions of competitor peptide in 100 µL; 100 mM phosphate, 75 mM NaCl, 1 mM CHAPS, pH 7; 24 h at RT; IC50 = 50% reduction of the fluorescent pHLA-complex peak
[2] = molecular target: soluble HLA-A*11:01 (heavy chain with β2M); assay: as above

In the case of `CC(C)C[C@H](NC(=O)[C@H](CO)NC(=O)[C@@H](NC(=O)[C@H](CCC(=O)O)NC(=O)[C@H](CCC(=O)O)NC(=O)[C@@H](NC(=O)[C@H](C)N)C(C)C)C(C)C)C(=O)N[C@@H](CCCNC(=N)N)C(=O)N[C@@H](CCCCN)C(=O)O` (H-AVEEVSLRK-OH), the IC50 (HLA-A*03:01 (HLA-A3)) is reported as 1330 nM and the IC50 (HLA-A*11:01 (HLA-A11)) is reported as 50.9 nM.

In the case of CLAVEEVSL, the HLA-A2 binding (HLA-A*02:01 (HLA-A2)) is listed as “HLA-A*02:01 (HLA-A2)-binding”.

B1: dNPM1 … peptide (peptide)
peptide: AVEEVSLRK
B1 showed an IC50 [1] of 1330 nM and an IC50 [2] of 50.9 nM.
